Common to all, as to test: SEC; Superdex 75 column on an Akta Purifier, PBS 1x, 0.5 mL/min; 75 uL (about 150 ug) of each purified protein loaded individually; column calibrated with a low molecular weight kit; oligomer size from the elution volume
The target of series [1] is CodY-S215A (Bacillus cereus ATCC 14579), N-terminal (His)6-tagged (Bacillus cereus ATCC 14579) (UniProt Q819X8).
The target of series [2] is CodY-S215D (Bacillus cereus ATCC 14579), N-terminal (His)6-tagged (Bacillus cereus ATCC 14579) (UniProt Q819X8).
Series [3] deals with the molecule itself.

Turning to “CodY-S215A (Bacillus cereus ATCC 14579), N-terminal (His)6-tagged (from UniProt Q819X8 1-259) (natural protein)”, the stoichiometry N in series [1] was 2. In turn, “CodY-S215D (Bacillus cereus ATCC 14579), N-terminal (His)6-tagged (from UniProt Q819X8 1-259) (natural protein)” yielded a stoichiometry N in series [2] of 2.

B1: CodY (Bacillus cereus ATCC 14579), N-terminal (His)6-tagged (natural protein)
chain: MELLAKTRKLNALLQSAAGKPVNFREMSDTMCEVIEANVFVVSRRGKLLGYAIHQQIENERMKQMLAERQFPEEYTQSLFNITETSSNLDVNSAYTAFPVENRELFGQGLTTIVPIVGGGERLGTLVLARLGQEFLDDDLILAEYSSTVVGMEILREKAEEIEEEARSKAVVQMAISSLSYSELEAIEHIFEELNGTEGLLVASKIADRVGITRSVIVNALRKLESAGVIESRSLGMKGTYIKVLNDKFLQELAKLKTN
notes: CodY, global transcriptional regulator of Bacillus cereus ATCC 14579; codY PCR-amplified from the chromosome with primers SAT31 + SAT32 and cloned in pQE-30; printed monomer Mw 29.8 kDa; also called CodY WT; wild-type CodY; source: E. coli M15 [pREP4], purified (Ni-NTA, desalted on PD10)
As for B1, the “stoichiometry N” value in series [3] was determined as 2.

The values above are taken from PMC12583987, “Impact of Hanks Kinase‐Dependent Phosphorylation of CodY on the Physiology and Virulence in Bacillus cereus” (MicrobiologyOpen, 2025).
